Results from the DeepSol protein solubility set.

Experiment: soluble on expression in E. coli; label from the status in PepcDB or PDB records

Row | Sequence | soluble on expression in E. coli
1 | MSLTIVAMNDVVKSFTGDIILEKVSLQLEEGERVGLIGRNGEGKSTILKILKGTEGVDSGIVTSKKGAKIGLLEQLSTVDPNIIVEQYLRTSFGELEELEKELRALEGEMATNSSEKLMNRYGDKMALFGELGGYEMDANLNKVVNGLGIGSLLSQRWGDLSGGEKTKVALAHLLLQKTDLLLLDEPTNHLDLMAVEWLTAFLQHYSGTVLVVSHDRYFLDEVVEKMVELENRELIVYHTNFSGYLKEREERLLREFQDYKDQQKKIKKMQQAIKRLRQWAMQANPPNDAMFRRAKNMERALERMEKVKRPVLTQKQMQLQFDEAGRSGQEVVVMENLSKSFSEKAIVQDVSLQIRQGERVAIIGENGAGKSTLLKIMEGKVVPDVGMIKVGASVKIASLSQQMEELNEKLTVLDAFRDKVAVTEGEARQMLAGFMFYGEMVFRKVGNISGGERMRLRLAQFINMPVNTLILDEPTNHLDIASREILEEAIRAFSGTIITVSHDRYFIDQLCSKVIWLENKQLTVYEGNYSYATSKREGHHHHHH | not soluble
2 | MSLIQTIENRLINGGELTLEEALLLASSADKEALYEAAHRITRYFMGDKFDTCSIINAKSGNCPEDCKWCAQSRHYAASIEKYGLLSAAVCAEQAAYNRRQGIGRFSLVASGRTASMNEIRQMAESYRAIKQRTDIKCCASLGLLSEEKLQILFDNGVTTYHCNMETAPSFFPSLCSTHTQDEKLATIRAARRVGMRVCSGGIIGMGETMEQRIEFAFYLHSINVYSIPINILQPIPGTPLERTLPLSEEEYLTTVALFRLINPRAFLRFSGGRAQLSPAVQRKAIYIGINAAITGDLLTTTGSKAAEDMQLVRECGFQVTNDTDWEVSYDHEGHHHHHH | not soluble
3 | MSLALVVQKYGGSSVADAERIRRVAERIVATKKQGNDVVVVVSAMGDTTDDLLDLAQQVCPAPPPRELDMLLTAGERISNALVAMAIESLGAHARSFTGSQAGVITTGTHGNAKIIDVTPGRLQTALEEGRVVLVAGFQGVSQDTKDVTTLGRGGSDTTAVAMAAALGADVCEIYTDVDGIFSADPRIVRNARKLDTVTFEEMLEMAACGAKVLMLRCVEYARRHNIPVHVRSSYSDRPGTVVVGSIKDVPMEDPILTGVAHDRSEAKVTIVGLPDIPGYAAKVFRAVARRRRQHRHGAAERLQGRGRQDRHHLHLLPQTSGPPPWKNWTRSETRSASTQLLYDDHIGKVSLIGAGMRSHPGVTATFCEALAAVGVNIELISTSEDQRSRCCAATPNWTRPWSRCMKRSGSAATRRPRCTRGRDGRWACQEGHHHHHH | not soluble
4 | MQVNRLPFFTNHFFDTYLLISEDTPVGSSVTQLLARDMDNDPLVFGVSGEEASRFFAVEPDTGVVWLRQPLDRETKSEFTVEFSVSDHQGVITRKVNIQVGGVNDNAPTFHNQPYSVRIPENTPVGTPIFIVNATDPDLGAGGSVLYSFQPPSPFFAIDSARGIVTVIQELDYEVTQAYQLTVNATDQDKTRPLSTLANLAIIITDLEHHHHHH | soluble
5 | YFEVNITMSSGLWSQEKVTSPYWEERIFYLLLQECSVTDKQTQKLLKVPKGSIGQYIQDRSVGHSRIPSAKGKKNQIGLKILEQPHAVLFVDEKDVVEINEKFTELLLAITNCEERFSLFKNRNRLSKGLQIDVGCPVKVQLRSGEEKFPGVVRFRGPLLAERTVSGIFFGVELLEEGRGQGFTDGVYQGKQLFQCDEDCGVFVALDKLELIEDDDTALESDYAGPGDTMQVELPPLEINSRVSLKVGETIESGTVIFCDVLPGKESLGYFVGVDMDNPIGNWDGRFDGVQLCSFACVESTILLHINDIIPESVTQERRPPKLAFMSRGVGDKGSSSHNKPKATGSTSDPGNRNRSELFYTLNGSSVDSQPQSKSKNTWYIDEVAEDPAKSLTEISTDFDRSSPPLQPPPVNSLTTENRFHSLPFSLTKMPNTNGSIGHSPLSLSAQSVMEELNTAPVQESPPLAMPPGNSHGLEVGSLAEVKENPPFYGVIRWIGQPPGLNEVLAGLELEDECAGCTDGTFRGTRYFTCALKKALFVKLKSCRPDSRFASLQPVSNQIERCNSLAFGGYLSEVVEENTPPKMEKEGLEIMIGKKKGIQGHYNSCYLDSTLFCLFAFSSVLDTVLLRPKEKNDVEYYSETQELLRTEIVNPLRIYGYVCATKIMKLRKILEKVEAASGFTSEEKDPEEFLNILFHHILRVEPLLKIRSAGQKVQDCYFYQIFMEKNEKVGVPTIQQLLEWSFINSNLKFAEAPSCLIIQMPRFGKDFKLFKKIFPSLELNITDLLEDTPRQCRICGGLAMYECRECYDDPDISAGKIKQFCKTCNTQVHLHPKRLNHKYNPVSLPKDLPDWDWRHGCIPCQNMELFAVLCIETSHYVAFVKYGKDDSAWLFFDSMADRDGGQNGFNIPQVTPCPEVGEYLKMSLEDLHSLDSRRIQGCARRLLCDAYMCMYQSPTMSLYK | soluble
6 | MSDPAGNRPKTEKELKKEAEKAAKLAKFEEKQKKLAEKKAAASDKPVKEAKAKKEQTVEAAEPVDQTPTGQRKKIDGEIPAAYFPGYVESGWYSWWEKEGFFKPEYIDKLNPGSNPADSFTVCIPPPNVTGNLHVGHALATTVEDTITRFNRMHGKRTLFNPGCDHAGIATQVVVEKRLKRERGLTRHDLGRDRFNQEVWHWKNEKGDVIYDQFRKLGASVDWDRAVFTMDPKMCRAVTEAFIRMHESGTIYRSNRLVNWSCALRSAISDIEVDKKELTGSTLIAVPGYDKKIEFGVLNSFAYKIQGSDEEIVVSTTRIETMLGDSGVAVHPDDQRYKHLVGKQCIHPFIPTRNLPIFADSFVEMEFGTGAVKITPAHDHNDYEVGIRQNLPFHNCITDDGLISQGCGEFSGMKRFDARTAVIEALKEKGLYRGKEDNPMVVPTCSRSKDVIEPILKPQWYVKCAHMAEKAVAAVANGDLQIIPEFHKATWNRWLESSRDWCISRQLWWGHRIPAYYISFADGREQPLPEENYWVSARTEQEALAKAAQKFQVPEAEILLKWDEDVLDTWFSSGMWPFAVFGWPDATKDMDLFFPGAVLETGHDILFFWVARMVFMAQELTGKLPFKEILLHAMIRDAHGRKMSKSLGNVIDPLDVIRGISLNDLQAQLLGGNLDEKEIAVAKEGQARDYPDGIPECGVDALRFALLSYTSQGRDINLDVLRVHGYRKFCNKLWQVVRFALARISDKPEQKPTFEINLKSATPTDLWILSRLAKAVKETNEALKAYNFTQATTVTYNFWLYDFCDVYVETIKPVLYGDNTTLRQVAISVLHKCIDTGLRLISPLMPFISEELWQRMPRLDDSDYTSPSIIVAQYPLTQKYEKYQNEKLEAAFEFAQELIGKVRSLRADYDLKKTKITMQILSETPEDESMLNDISAVITTLTFSEKVSILNKCESDKIEKGSAHIACGGRCQVYINLTGIIDVPKEIEKLGAKLQKNQISVKKIGDIQSSADYEQKVPVDIRALDQEKKATLEKEIENITAAIAQLKALN | not soluble
7 | MGSDKIHHHHHHMEEARIKALISLLDDEDVEVISQVEKELLAQGGSMIPFLEKEWEENFNPIVQKRIEDLVHLLQFVLLEDRLSQWKNKGGTDLMEGLWLICTYQYPDLEFNTIKSAMEQIYYEVWLDMKPDMLPLEQVKLVMNNVLFNKLKFSANTKNFHSPANSMISQVLESKKGNPISLCCIYMMVAQKLKLPVYGVNLPTLFILTYKSDDTQFYISPFHKGLIFTKEDIDNYLLQLNLAPIDLYYQPCNNIDIVARVLRNLIVSFEKLSEMERVDDVKKMLHFLTGEKY | not soluble
8 | MPCTDKGMIDLARKTVKLTTLRQGEEATIAGISKACRGANRRRLLDLGFVRGSRIAIDLTSPLGNPTAYVVRGTAIALRRDQARYILIYR | not soluble
9 | MSQFDLTPPSPAQRDALIAGLSDEEQRVLLHHGTEAPFCGVFLDNKLDGVYTCRLCGLPLFRSNAKFDSGTGWPSFFAPYDPAHVREIRDTSYGMVRTEIVCARCDSHLGHVFPDGPPPTGERHSLNSVSLAFTEDGQPLPNPLQRAGAETQPA | soluble
10 | MPLVVFCGLPYSGKSRRAEELRVALAAEGRAVYVVDDAAVLGAEDPAVYGDSAREKALRGALRASVERRLSRHDVVILDSLNYIKGFRYELYCLARAARTPLCLVYCVRPGGPIAGPQVAGANENPGRNVSVSWRPRAEEDGRAQAAGSSVLRELHTADSVVNGSAQADVPKELEREESGAAESPALVTPDSEKSAKHGSGAFYSPELLEALTLRFEAPDSRNRWDRPLFTLVGLEEPLPLAGIRSALFENRAPPPHQSTQSQPLASGSFLHQLDQVTSQVLAGLMEAQKSAVPGDLLTLPGTTEHLRFTRPLTMAELSRLRRQFISYTKMHPNNENLPQLANMFLQYLSQSLH | soluble
